Results: publication PMC3367397 (Nature, 2012)

Target: T1, Angptl2-FLAG (human, UniProt Q9UKU9 23-493)
T1 sequence (looked up): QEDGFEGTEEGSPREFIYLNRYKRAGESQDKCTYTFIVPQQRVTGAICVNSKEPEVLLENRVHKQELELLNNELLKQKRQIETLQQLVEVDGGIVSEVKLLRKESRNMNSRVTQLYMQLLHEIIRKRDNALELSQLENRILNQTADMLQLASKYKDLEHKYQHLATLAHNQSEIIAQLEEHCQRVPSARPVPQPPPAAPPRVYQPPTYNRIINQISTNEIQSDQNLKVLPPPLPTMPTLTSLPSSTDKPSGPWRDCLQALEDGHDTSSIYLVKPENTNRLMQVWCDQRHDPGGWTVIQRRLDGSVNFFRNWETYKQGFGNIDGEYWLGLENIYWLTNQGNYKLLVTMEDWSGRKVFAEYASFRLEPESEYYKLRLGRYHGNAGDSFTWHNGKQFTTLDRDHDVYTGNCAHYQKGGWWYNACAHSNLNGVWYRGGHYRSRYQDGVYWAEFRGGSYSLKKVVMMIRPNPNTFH
Experiment: co-IP

B1: LILRB2 extracellular domain (ECD) fused to human IgG-Fc (Fc fusion, UniProt Q8N423 22-460, looked up)
chain: QTGTIPKPTLWAEPDSVITQGSPVTLSCQGSLEAQEYRLYREKKSASWITRIRPELVKNGQFHIPSITWEHTGRYGCQYYSRARWSELSDPLVLVMTGAYPKPTLSAQPSPVVTSGGRVTLQCESQVAFGGFILCKEGEDEHPQCLNSQPHARGSSRAIFSVGPVSPNRRWSHRCYGYDLNSPYVWSSPSDLLELLVPGVSKKPSLSVQPGPVMAPGESLTLQCVSDVGYDRFVLYKEGERDLRQLPGRQPQAGLSQANFTLGPVSRSYGGQYRCYGAHNLSSECSAPSDPLDILITGQIRGTPFISVQPGPTVASGENVTLLCQSWRQFHTFLLTKAGAADAPLRLRSIHEYPKYQAEFPMSPVTSAHAGTYRCYGSLNSDPYLLSHPSEPLELVVSGPSMGSSPPPTGPISTPGPEDQPLTPTGSDPQSGLGRHLGV
**Q.** Does B1 bind?
**A.** binds
